Patent US7491523B2, “Voltage-dependent calcium channel beta subunit functional core” (priority 2004, dated 2009)
fluorescein = fluorescein label

Tests used:
Cav1.2 (α1C) = target: T1, Cav1.2 (α1C) (Homo sapiens, UniProt Q13936); test: Two-electrode voltage clamp of Xenopus oocytes expressing Cav1.2, microinjected with β proteins; format: cell-based, Xenopus laevis; settings: for Current amplitude, I at 20 mV / Current amplitude, I at 30 mV: Xenopus oocytes, α1.2, mean ± SEM; for Steady-state activation, V1/2 (membrane potential for half-maximal activation) / Steady-state activation, k (slope factor): from I-V curve, mean ± SEM; for current amplitude increase and change of steady-state activation: Cav1.2 currents, protein injection into oocytes
T1 construct: expressed in transfected cells; host or cells: Xenopus laevis oocytes, mRNA injection
T1 sequence (Q13936 whole entry, species assumed): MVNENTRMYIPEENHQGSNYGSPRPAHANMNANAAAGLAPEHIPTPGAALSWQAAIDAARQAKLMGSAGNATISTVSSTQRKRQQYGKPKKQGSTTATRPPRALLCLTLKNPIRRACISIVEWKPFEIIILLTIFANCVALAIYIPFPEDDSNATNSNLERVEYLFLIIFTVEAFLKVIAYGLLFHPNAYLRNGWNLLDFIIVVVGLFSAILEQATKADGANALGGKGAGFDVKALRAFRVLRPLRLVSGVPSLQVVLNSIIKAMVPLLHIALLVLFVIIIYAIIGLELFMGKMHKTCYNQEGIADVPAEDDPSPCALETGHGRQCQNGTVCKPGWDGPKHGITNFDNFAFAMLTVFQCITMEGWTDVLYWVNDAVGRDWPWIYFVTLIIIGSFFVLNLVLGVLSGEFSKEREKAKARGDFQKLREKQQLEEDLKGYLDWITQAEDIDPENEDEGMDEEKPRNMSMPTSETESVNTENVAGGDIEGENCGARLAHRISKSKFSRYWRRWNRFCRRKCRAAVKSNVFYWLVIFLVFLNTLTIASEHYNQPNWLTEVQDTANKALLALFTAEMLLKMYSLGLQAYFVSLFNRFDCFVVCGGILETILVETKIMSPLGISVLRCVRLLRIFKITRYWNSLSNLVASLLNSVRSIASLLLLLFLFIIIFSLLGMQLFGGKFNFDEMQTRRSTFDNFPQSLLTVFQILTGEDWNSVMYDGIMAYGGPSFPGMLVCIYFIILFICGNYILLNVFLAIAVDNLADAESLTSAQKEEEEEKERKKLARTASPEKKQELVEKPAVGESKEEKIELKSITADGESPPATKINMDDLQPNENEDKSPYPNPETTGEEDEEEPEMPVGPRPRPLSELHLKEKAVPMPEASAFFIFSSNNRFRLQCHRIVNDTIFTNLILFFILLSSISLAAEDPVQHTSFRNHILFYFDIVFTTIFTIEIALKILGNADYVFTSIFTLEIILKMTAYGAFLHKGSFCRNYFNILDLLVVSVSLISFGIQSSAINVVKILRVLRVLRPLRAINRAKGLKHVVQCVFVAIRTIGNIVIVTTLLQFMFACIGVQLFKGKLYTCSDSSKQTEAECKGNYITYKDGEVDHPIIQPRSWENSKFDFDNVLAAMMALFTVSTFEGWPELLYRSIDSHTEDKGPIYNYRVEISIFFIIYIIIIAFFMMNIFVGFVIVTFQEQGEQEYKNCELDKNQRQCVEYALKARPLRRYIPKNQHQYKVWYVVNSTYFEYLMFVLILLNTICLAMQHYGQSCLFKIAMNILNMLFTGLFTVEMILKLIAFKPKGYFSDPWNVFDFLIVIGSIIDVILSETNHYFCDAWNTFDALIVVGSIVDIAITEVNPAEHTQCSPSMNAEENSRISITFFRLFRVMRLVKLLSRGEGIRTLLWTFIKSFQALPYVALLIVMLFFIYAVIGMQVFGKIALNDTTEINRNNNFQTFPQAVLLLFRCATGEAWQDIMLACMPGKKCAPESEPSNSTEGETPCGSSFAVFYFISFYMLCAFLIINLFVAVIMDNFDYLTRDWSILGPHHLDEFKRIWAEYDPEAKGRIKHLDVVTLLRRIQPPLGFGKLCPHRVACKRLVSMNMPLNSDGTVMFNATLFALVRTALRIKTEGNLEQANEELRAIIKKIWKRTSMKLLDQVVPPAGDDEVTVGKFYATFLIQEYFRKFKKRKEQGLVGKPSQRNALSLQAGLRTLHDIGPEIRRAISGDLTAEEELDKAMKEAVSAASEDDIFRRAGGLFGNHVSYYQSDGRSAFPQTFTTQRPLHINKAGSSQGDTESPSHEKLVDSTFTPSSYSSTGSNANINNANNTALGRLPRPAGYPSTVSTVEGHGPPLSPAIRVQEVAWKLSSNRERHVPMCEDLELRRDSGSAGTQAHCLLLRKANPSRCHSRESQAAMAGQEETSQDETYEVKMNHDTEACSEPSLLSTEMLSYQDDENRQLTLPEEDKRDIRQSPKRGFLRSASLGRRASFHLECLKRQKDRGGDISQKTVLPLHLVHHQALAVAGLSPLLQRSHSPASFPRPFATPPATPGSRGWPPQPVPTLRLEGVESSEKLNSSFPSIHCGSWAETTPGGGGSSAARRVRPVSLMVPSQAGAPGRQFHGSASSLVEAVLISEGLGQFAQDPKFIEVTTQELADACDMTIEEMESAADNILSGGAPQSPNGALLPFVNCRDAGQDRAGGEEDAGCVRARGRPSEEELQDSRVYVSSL
Method: Preparation of Xenopus laevis oocytes, injection of mRNA of VDCC subunits, and electrophysiological recording and analysis were performed, as described (Kang, M. G., Chen, C. C., Felix, R., Letts, V. A., Frankel, W. N., Mori, Y., and Campbell, K. P. (2001) J Biol Chem 276, 32917-32924). The negative control group were oocytes expressing CaV1.2 (α1C) subunit only by mRNA injection followed by injection of protein buffer (PB). The positive control group were oocytes expressing α1C and β3 subunits by mRNA injection, followed by injection of protein buffer (PB). The oocytes of experimental groups were injected with α1C mRNA followed by injection of VDCC β proteins, two days after the mRNA injection. Injection of protein ([…] of protein per oocyte) was performed similarly as mRNA injection. Oocytes injected with VDCC β proteins were incubated one more day and the expressed calcium channel currents were recorded using the two-electrode voltage-clamp technique.
In order to determine that the bacterially expressed, recombinant proteins were physiologically active, two-electrode, two-voltage-clamp measurements of Xenopus oocytes expressing α1 and microinjected with our protein samples was performed. […] The current amplitude increase and change of steady-state activation are statistically significant in all experimental groups except a group injected with β2a domain I protein.

β = settings: AID with β; cited from earlier work
[1] = target: T2, fluorescein-labeled AID peptide (AID motif of the CaV1.1 I-II linker) (Oryctolagus cuniculus, UniProt P07293, M367N); test: AID peptide binding assay (fluorescence polarization): VDCC β constructs titrated against labeled AID peptide; settings: identical protein amounts, after incubation with TEV protease, FIG. 6c
T2 construct: fluorescein label (chemical, on the amino-terminus); made in house; host or cells: synthetic peptide, HPLC-purified
T2 sequence (P07293 with tags, fused parts or gaps M367N): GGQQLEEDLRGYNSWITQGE
From the text: Fluorescence polarization was used to determine the equilibrium dissociation constant (KD) for the interaction between a fluorescein-labeled AID peptide, purified and various VDCC β constructs. The synthetic peptide was purified by HPLC reverse chromatography using a C18 column (Vydac) with a shallow acetonitrile gradient 20-80% (both solvents were supplemented with 0.05% trifluoracetic acid). Its sequence is derived from the AID motif of: the CaV1.1 I-II linker and is as follows: fluorescein-[…]-COOH (SEQ ID NO: 14). A mutant peptide, fluorescein-[…]-COOH (SEQ ID NO: 15) was prepared, in addition. […] Polarization measurements were taken with an ISS K2 fluorescence spectrophotometer at excitation and emission wavelengths of 492 and 520 nm, respectively, at 20° C., maintained by a temperature-controlled water bath. […] Binding isotherms for the various samples were measured three independent times. Binding data were analyzed in SigmaPlot (SPSS) by nonlinear regression used to fit a binding function as defined by the following equation: […]
where X is the concentration of free ligand, ΔP is the change in fluorescence polarization of the fluorophore (baseline polarization of the labeled peptide alone was subtracted), Bmax is the maximum change in polarization upon saturation and KD is the concentration of ligand required to reach half maximal binding. […]

β2a protein [2] = target: T3, β2a protein (Oryctolagus cuniculus, UniProt P54288, P148R); settings: single amino acid change Y to S; cited from earlier work
T3 construct: Equilibrium isotherm titrations were performed with full-length β2a and linkerless core β2a; 8xHis tag followed by a TEV protease site (N, cleaved yes); made in house; host or cells: E. coli BL-21 Tuner with RIL Codon Plus plasmid, modified pET21 vector
T3 sequence (P54288 2-606 isoform P54288-2 P122R): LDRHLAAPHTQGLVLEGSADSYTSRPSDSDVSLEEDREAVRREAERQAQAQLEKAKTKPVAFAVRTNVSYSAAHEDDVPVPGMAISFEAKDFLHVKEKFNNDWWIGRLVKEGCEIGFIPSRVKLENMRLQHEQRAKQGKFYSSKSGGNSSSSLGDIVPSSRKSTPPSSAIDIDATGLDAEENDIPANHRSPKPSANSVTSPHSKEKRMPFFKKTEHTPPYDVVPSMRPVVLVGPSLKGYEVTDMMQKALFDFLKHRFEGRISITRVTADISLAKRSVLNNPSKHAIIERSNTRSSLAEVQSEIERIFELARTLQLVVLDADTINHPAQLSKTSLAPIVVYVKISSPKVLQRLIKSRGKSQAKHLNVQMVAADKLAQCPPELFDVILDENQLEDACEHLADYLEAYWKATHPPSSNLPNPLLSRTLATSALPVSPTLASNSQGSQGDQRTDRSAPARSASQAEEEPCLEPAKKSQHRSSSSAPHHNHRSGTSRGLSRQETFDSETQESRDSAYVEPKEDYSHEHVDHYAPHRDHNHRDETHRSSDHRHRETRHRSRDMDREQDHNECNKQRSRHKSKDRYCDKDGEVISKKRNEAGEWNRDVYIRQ

β2a protein [3] = target: T4, β2a protein (Oryctolagus cuniculus, UniProt P54288); test: AID peptide binding assay (fluorescence polarization): AID peptide variants against β2a; set-up: species or system rabbit; settings: up to 350 nM β2a protein
T4 construct: Equilibrium isotherm titrations were performed with full-length β2a and linkerless core β2a; 8xHis tag followed by a TEV protease site (N, cleaved yes); made in house; host or cells: E. coli BL-21 Tuner with RIL Codon Plus plasmid, modified pET21 vector
T4 sequence (P54288 2-606 isoform P54288-2 P122R): as above
From the text: Fluorescence polarization was used to determine the equilibrium dissociation constant (KD) for the interaction between a fluorescein-labeled AID peptide, purified and various VDCC β constructs. The synthetic peptide was purified by HPLC reverse chromatography using a C18 column (Vydac) with a shallow acetonitrile gradient 20-80% (both solvents were supplemented with 0.05% trifluoracetic acid). Its sequence is derived from the AID motif of: the CaV1.1 I-II linker and is as follows: fluorescein-[…]-COOH (SEQ ID NO: 14). A mutant peptide, fluorescein-[…]-COOH (SEQ ID NO: 15) was prepared, in addition. Increasing concentrations of protein were incubated with 0.5 nM labeled peptide for 10 min in the dark at room temperature. Polarization measurements were taken with an ISS K2 fluorescence spectrophotometer at excitation and emission wavelengths of 492 and 520 nm, respectively, at 20° C., maintained by a temperature-controlled water bath. Polarization measurements were made with integration times on the order of 20 seconds, achieving a standard deviation of 5 percent of signal. Binding isotherms for the various samples were measured three independent times. Binding data were analyzed in SigmaPlot (SPSS) by nonlinear regression used to fit a binding function as defined by the following equation: […]

Row | Substance | Current amplitude, I at 20 mV (Cav1.2 (α1C)) | Current amplitude, I at 30 mV (Cav1.2 (α1C)) [µA] | Steady-state activation, V1/2 (membrane potential for half-maximal activation) (Cav1.2 (α1C)) [mV] | Steady-state activation, k (slope factor) (Cav1.2 (α1C)) [mV] | koff (β) [s⁻¹] | current amplitude increase and change of steady-state activation (Cav1.2 (α1C)) | relative binding to labeled AID peptide [1] | binding capability relative to WT (β2a protein [2]) | binding of AID peptide to β2a (β2a protein [3])
1 | Full β3 Pro.: recombinant full-length rat VDCC β3 subunit protein | -0.47 ± 0.04 µA | -0.44 ± 0.03 | 10.03 ± 3.36 | 10.56 ± 0.42 | – | – | – | – | –
2 | Full β2 Pro.: injected recombinant full-length β2a protein, later found to contain mutation P122R | -0.71 ± 0.09 µA | -0.49 ± 0.06 | 3.68 ± 0.33 | 8.48 ± 0.53 | – | – | – | – | –
3 | AID: α1 interaction domain sequence of the α1 I-II linker that binds β | – | – | – | – | ~0.005 | – | – | – | –
4 | Core β2 Pro.: injected recombinant β2a core protein | −0.87 ± 0.09 A | -0.7 ± 0.07 | 6.84 ± 0.83 | 8.43 ± 0.23 | – | corresponds well to full-length protein activity | – | – | –
5 | d1 + d2 β2 Pro.: domain I + domain II prepared by proteolysis of full length protein and subsequent purification | -0.44 ± 0.04 µA | -0.34 ± 0.03 | 3.24 ± 0.93 | 9.49 ± 0.92 | – | significant changes in the current amplitude and activation shift | – | – | –
6 | domain II: β2a domain II released from NusA-domain II fusion by incubation with TEV protease | – | – | – | – | – | – | significant binding affinity for the AID | – | –
7 | Core β3 Pro.: β3 core protein | -0.45 ± 0.04 µA | -0.41 ± 0.03 | 10.65 ± 4.46 | 10.06 ± 1.15 | – | – | – | – | –
8 | fluorescein-GGQQLEEDLRGSNSWITQGE-COOH (SEQ ID NO: 15) (fluorescein-GGQQLEEDLRGSNSWITQGE-OH; listed as Oryctolagus cuniculus) [mutant AID peptide, mutant AID peptide with single amino acid change Y to S] | – | – | – | – | – | – | – | less than five percent binding capability of WT | No binding
9 | β2a domain I: recombinant β2a domain I, residues 25 to 146 | -0.16 ± 0.01 µA | -0.18 ± 0.02 | 24.00 ± 3.01 | 12.18 ± 0.49 | – | – | negligible | – | –
